This note sets out measurements from US20110082285A1 (STAIDSON BEIJING PHARMACEUTICAL, published 2011).

The experiment has as its target T1, P75 (UniProt P08138 29-427).
T1 construct: whole, on cells
T1 sequence (looked up): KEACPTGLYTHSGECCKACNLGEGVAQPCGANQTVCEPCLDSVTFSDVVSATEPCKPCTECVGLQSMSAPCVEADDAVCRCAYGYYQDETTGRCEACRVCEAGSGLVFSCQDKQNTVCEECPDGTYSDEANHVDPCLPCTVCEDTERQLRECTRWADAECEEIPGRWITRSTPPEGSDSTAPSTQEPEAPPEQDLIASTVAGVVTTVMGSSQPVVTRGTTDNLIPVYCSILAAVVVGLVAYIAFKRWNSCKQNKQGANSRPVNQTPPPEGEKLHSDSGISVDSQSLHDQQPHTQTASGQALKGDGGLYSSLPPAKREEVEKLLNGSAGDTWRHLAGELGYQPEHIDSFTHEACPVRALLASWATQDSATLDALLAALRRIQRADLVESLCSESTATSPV
As to the kind of experiment: I^125-labeled ligand crosslinked to A875 tumor cells expressing P75, immunoprecipitation, SDS-PAGE, autoradiography. On the procedure: The WT mouse NGF and mutant NGF was labeled with I¹²⁵, then added to both the cells expressing TrkA and the A875 tumor cells expressing P75. The ligand and receptor were crosslinked by N-hydroxysuccinimidyl-4-azidobenzoate, the cells were lysed, and the cross-linked complex was immunoprecipitated overnight at 4° C.

B1: mutant NGF (mouse NGF-β mature peptide with Lys32, Lys34 and Glu35 changed to Ala) (ligand)
chain: SSTHPVFHMGEFSVCDSVSVWVGDKTTATDIAGAAVTVLAEVNINNSVFRQYFFETKCRASNPVESGCRGIDSKHWNSYCTTTHTFVKALTTDEKQAAWRFIRIDTACVCVLSRKATRRG
modifications: Labelled with I^125 (labelled residues not stated). Disulfide-bonded monomer; NGF-β acts as a non-covalent homodimer, one chain given.
notes: also called mutant NGF-β; NGF mutant
As for B1, the binding result is listed as “no binding”.
